Source: US20240425885

System: T1, OMNI-90 (metagenomic, unknown)
T1 sequence: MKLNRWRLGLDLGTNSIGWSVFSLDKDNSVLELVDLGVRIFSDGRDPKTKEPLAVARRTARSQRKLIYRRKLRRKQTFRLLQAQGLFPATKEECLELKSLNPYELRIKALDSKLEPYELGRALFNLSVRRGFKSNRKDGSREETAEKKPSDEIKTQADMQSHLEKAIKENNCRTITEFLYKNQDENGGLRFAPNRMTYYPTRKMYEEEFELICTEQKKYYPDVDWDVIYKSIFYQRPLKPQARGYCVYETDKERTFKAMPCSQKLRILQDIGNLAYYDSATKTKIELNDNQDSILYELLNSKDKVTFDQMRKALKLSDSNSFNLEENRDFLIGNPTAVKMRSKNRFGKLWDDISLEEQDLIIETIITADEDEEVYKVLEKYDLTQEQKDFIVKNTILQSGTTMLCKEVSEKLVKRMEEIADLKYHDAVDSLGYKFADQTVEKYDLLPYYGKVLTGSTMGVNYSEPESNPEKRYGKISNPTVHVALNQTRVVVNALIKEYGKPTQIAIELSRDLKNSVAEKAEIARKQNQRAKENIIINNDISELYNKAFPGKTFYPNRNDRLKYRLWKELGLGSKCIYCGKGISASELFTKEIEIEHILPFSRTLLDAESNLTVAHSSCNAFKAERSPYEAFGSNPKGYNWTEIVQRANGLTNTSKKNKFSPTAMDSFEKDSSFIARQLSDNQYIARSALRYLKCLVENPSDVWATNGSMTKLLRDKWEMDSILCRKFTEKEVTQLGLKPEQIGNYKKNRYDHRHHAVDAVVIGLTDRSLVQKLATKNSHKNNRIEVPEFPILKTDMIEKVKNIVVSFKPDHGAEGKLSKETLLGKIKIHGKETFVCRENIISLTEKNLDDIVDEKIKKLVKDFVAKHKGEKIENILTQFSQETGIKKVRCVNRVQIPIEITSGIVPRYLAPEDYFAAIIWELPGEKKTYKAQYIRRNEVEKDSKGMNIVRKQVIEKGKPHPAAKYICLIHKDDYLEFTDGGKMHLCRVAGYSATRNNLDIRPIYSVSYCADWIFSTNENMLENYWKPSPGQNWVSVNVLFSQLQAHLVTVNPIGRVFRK
Assay: cleavage_in_vitro
Details: TXTL, PAM NNATTGYN

Row | Sequence | activity (1-depletion score) | further results
1 | GGAAGAGCAGAGCCUUGGUCUCGUUGCAGGUUGACCGGGAAAGCGGUCAACCUGCUAACAAGGAAACCUUUAGUUUCCGCAAUAUGCUUUAAUAUUCGUUGAGAUUAUUGCGUGAAUAUAGAUAGCACACAAUGCUUUUU / GGAAGAGCAGAGCCTTGGTCTCNNNNNNNN / NNNNNNNNGAGACCAAGGCTCTGCTCTTCC [T2 sgRNA 1 V3 ; T2 protospacer + 8N PAM library (pbPOS T2)] |  | activity (1-depletion score) (terminal hairpin deleted): 0.95
2 | GGAAGAGCAGAGCCUUGGUCUCGUUGCAGGUUGACCGGGAAAGCGGUCAACCUGCUAACAAGGAAACCUUUAGUUUCCGCAAUAUGCUUUAAUAUUCGUUGAGAUUAUUGCGUGAAUAUAGAUAGCACACAAUGCAAAGGGAAAGCUACGGCUUUCCCCCUUUUUUUU / GGAAGAGCAGAGCCTTGGTCTCNNNNNNNN / NNNNNNNNGAGACCAAGGCTCTGCTCTTCC [T2 sgRNA 1 V2 ; T2 protospacer + 8N PAM library (pbPOS T2)] | 0.94 | 
3 | GGAAGAGCAGAGCCUUGGUCUCGUUGCAGGUUGACCGGGAAAGCGGUCAACCUGCUAACAAGGAAACCUUUAGUUUCCGCAAUAUGCUUUAAUAUUCGUUGAGAUUAUUGCGUGAAUAUAGAUUUUU / GGAAGAGCAGAGCCTTGGTCTCNNNNNNNN / NNNNNNNNGAGACCAAGGCTCTGCTCTTCC [T2 sgRNA 1 V4 ; T2 protospacer + 8N PAM library (pbPOS T2)] |  | activity (1-depletion score) (two last hairpins deleted): 0.96
4 | GGAAGAGCAGAGCCUUGGUCUCGUUGCAGGUUGACCGGGAAAGCGGUCAACCUGCUAACAAGGAAACCUUUAGUUUCCGCAAAAUGCUUUUAUAUUCGUUGAGAUUUUUGCGUGAAUAUAGAUAGCACACAAUGCAAAGGGAAAGCUACGGCUUUCCCCCUUUUUUUU / GGAAGAGCAGAGCCTTGGTCTCNNNNNNNN / NNNNNNNNGAGACCAAGGCTCTGCTCTTCC [T2 sgRNA 1 V1 ; T2 protospacer + 8N PAM library (pbPOS T2)] | 0.95 | 
